Results as given in patent US20040005639A1, “Glycerylaldehyde-3-phosphate dehyrogenase promoter inducing cell death” (priority 2000, published 2004).

B1: p104: 1.2 kb rat GAPDH promoter fragment amplified from the EcoRV genome library, SEQ ID NO: 1 (nucleic acid, listed as Rattus norvegicus)
DNA: ACTATAGGGCACGCGTGGTCGATGGCTTGGGTTGGTATCTACGACTAAACAAGAGAGAGAATGAGATTAATCTCCGCATAATAGTGTGTATCGGCTGAACATACACAGACACACACAGACACACACATACACACAGACACAGAAACATACGCTTAGCACACACAGAAGCACACATACACAGACAGAAACTCACATACACAGAGACCCACAGATATAGACACACAGAGACACAGATGCACACACAGACCTACTTACACACTCATAGACATAGATACACACACATAGACACACACTGACATATCAACACACCTACAGACACACACACCACACATACGCACACACACATACATGAACACACACATACACACGCACACACATACACACACATGGAAACACATGTTTTATGAAGATCTAGGAATTACCCCAATCACAGTAGAATGGATGCCTGTGTTGGGACCCAGGAGGGACAGGAAATAGAAATGGGCTAGGGGGCTGGAGAGATGGCTCAGAGGTTAAGAGCACTGTCTGCTCTTCCAGAGGTCCGGAGTTCAATTCCCAGAAACCACATGGTGGCTCACAACCATCTATAATCAGGTCTGGTGCCCTCTTCTGGCCTGCAGGCATACATGCAAGCAGAAAGCTGTATGATGTATACATAATAAATAAATAAATTTGAAAAAAAAGAAATGGGCTTAGGGGTGATGGGAAGAGAAGGACTCTGAAGGTCTGTAGACCGCTCATAAACTGGGGCAGACGTTGCTCCTGCTTGAGCACCTGACTTCCCAGTCCATTGCCACCATGGTCTTTGTGCCACCATGGCCAGTCCAAGGCCATCCTTAAACAGGCTGCAAAAAGTTTTAACTAGGACCATTAGATTGTCTCTTAAAACTATGAAAGGTTTTACTTTATTTCTCTCTCTCTCTCTCTCTCTCTCTCTCTCTCATTTTAAAAATATTTTTTCGGCTCTCTGCTCCTCCCTGTTCTAGAGACAGCCGCATCTTCTTGTGCAGTGCCAGCCTCGTCTCATAGACAAGATGGTGAAGGTCGGTGTGAACGGATTTGGCCGTATCGGACGCCTGGTTACCAGGGCTGCCTTCTCTTGTGACAAAGTGGACACTGTTGCC
modifications: CDS (1035)..(1124)

Assays:
[1] = system: CGCs; assay: Probability of survival of CGCs treated with AraC; type: cell-based, rat
Procedure: (§1) CGCs were prepared according to the previous report (J. Neurochem., 66,928-935 (1996)). 16 hours after plating, the following were mixed and added to the non-serum cultures. In addition, it mixed beforehand and added in the culture so that the ratio of A and B might be set to 5:1, it might serve at a final concentration of 2 micro g/mL, C might be set to 1 micro L/micro g DNA and D might be set to 6 micro L/micro g DNA.
(§2) The cells were washed 20 hours after plating and the culture was continued for further 4 hours. […]
The probability of survival of CGCs treated with AraC (500 micro M) was 68% for 14 hours and 44% for 24 hours.

[2] = system: rat cerebellum origin granule cells (CGCs); assay: Reporter assay: luciferase activity of CGCs transfected with promoter-pGL3-enhanser vector, after AraC addition; type: cell-based; settings: for luciferase activity: vector without promoter set to 1.0
Procedure: The plasmid which inserted promoter sequence (p104-pCR-Script Amp SK (+) and p302-pCR-Script Amp SK (+)) were cleaved at BsmBI site which exists just upstream of translation starting site of GAPDH protein and was created blunt-ends. The fragment was cleaved at the MluI site of 5′-end, sequence including promoter sequence was excised.
The pGL3-enhanser vector (Promega) was opened the MluI-SmaI site, and each promoter sequence excised here was inserted.
Reporter assay was performed with each vector as follows. Reporter assay used the primary culture cell of rat cerebellum origin granule cells (CGCs).
as §1
A) p104-pGL3-enhanser vector or p302-pGL3-enhanser vector both vector contains a firefly luciferase gene on the downstream of the promoter.
B) pRL-SV40 vector (it includes Renilla luciferase gene as an internal standard enzyme on the downstream of SV40 promoter currently activated constantly),
as §2

| Molecule | probability of survival of CGCs ([1]; AraC 10 micro M, 14 or 24-hours culture) | probability of survival of CGCs ([1]; AraC 500 micro M, 14 hours) [%] | probability of survival of CGCs ([1]; AraC 500 micro M, 24 hours) [%] | increase of luciferase activity ([2]; 24 hours after AraC addition, CGCs transformed by p104-pGL3-enhanser vector) [times] | promoter activation ([2]; AraC 10 micro M (Table 2), result in words) | luciferase activity ([2]; Table 1, AraC 500 micro M, culture time after addition 14 hours) | luciferase activity ([2]; Table 1, AraC 500 micro M, culture time after addition 24 hours) | luciferase activity ([2]; Table 2, AraC 10 micro M, culture time after addition 14 hours) | luciferase activity ([2]; Table 2, AraC 10 micro M, culture time after addition 24 hours) |
| --- | --- | --- | --- | --- | --- | --- | --- | --- | --- |
| Nc1ccn([C@@H]2O[C@H](CO)[C@@H](O)[C@@H]2O)c(=O)n1 [AraC, cytosine arabinoside] | more than 90% | 68 | 44 |  |  |  |  |  |  |
| B1 |  |  |  | 1.7 | neither of the two promoters (p104 and p302) showed significant activation | 1.7 | 2.4 | 1.2 | 1.3 |
